Patent US20210041163A1 (Hoffmann-La Roche, published 2021)

Molecular target: T1, human neonatal Fc receptor (FcRn), FcRn beta-2-microglobulin complex (human, UniProt P55899 24-297; P61769 21-119)
T1 construct: also called human FcRn
Test: SPR-based binding assay, relative to the reference antibody

T1 sequence (P55899 24-297 limits assumed, chain 1 of 2): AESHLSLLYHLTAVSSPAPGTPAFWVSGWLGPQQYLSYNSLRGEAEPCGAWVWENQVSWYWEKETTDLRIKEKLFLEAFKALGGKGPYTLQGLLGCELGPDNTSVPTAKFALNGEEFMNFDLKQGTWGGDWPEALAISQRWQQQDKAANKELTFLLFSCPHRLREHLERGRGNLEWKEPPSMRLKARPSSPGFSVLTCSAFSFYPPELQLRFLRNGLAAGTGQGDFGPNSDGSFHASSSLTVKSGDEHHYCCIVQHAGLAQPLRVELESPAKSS
T1 sequence (P61769 21-119 limits assumed, chain 2 of 2): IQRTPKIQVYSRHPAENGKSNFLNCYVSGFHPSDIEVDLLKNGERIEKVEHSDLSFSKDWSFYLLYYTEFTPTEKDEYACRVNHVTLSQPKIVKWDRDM

B1: anti-digoxygenin antibody variant 7 (LC-G57R and LC-S60K) (antibody, human IgG1, kappa, name in Kabat numbering)
heavy: not shown
light: DIQMTQSPSSLSASVGDRVTITCRASQDIKNYLNWYQQKPGKAPKLLIYYSSTLLSRVPKRFSGSGSGTDFTLTISSLQPEDFATYYCQQSITLPPTFGGGTKVEIKRRTVAAPSVFIFPPSDEQLKSGTASVVCLLNNFYPREAKVQWKVDNALQSGNSQESVTEQDSKDSTYSLSSTLTLSKADYEKHKVYACEVTHQGLSSPVTKSFNRGEC
notes: Variant of m1
relative SPR binding: 161%
